PMC4383751 (Protein & Cell, 2015)

How the values were obtained:
[1] = biological target: the molecule itself; test: crystal structure; crystals grown at 18°C by hanging-drop vapor diffusion, protein 15-20 mg/mL, in the absence of FBP (malonate for K305Q, L-proline for Y105E)
[2] = biological target: the molecule itself; test: SEC; gel filtration on Superdex 200 10/300 GL, in the presence of FBP; similar protein concentrations and conditions for all proteins
[3] = biological target: the molecule itself; test: cell-based or functional assay

B1: PKM2^Y105E (phosphorylation mimic of Y105) (enzyme)
chain: not shown
[1]
  stoichiometry N: 4

B2: PKM2^K422R (a patient-derived mutation) (enzyme)
chain: not shown
[2]
  stoichiometry N: 4

B3: PKM2^K305Q (acetylation mimic of K305) (enzyme)
chain: not shown
[1]
  stoichiometry N: 4
[2]
  stoichiometry N: 2
[3]
  normalized kcat/Km of pyruvate kinase activity (PKM2^WT as standard) in the presence of FBP: 0.2 relative to kcat/Km of PKM2^WT

B4: PKM2^R399E (a dimeric mutant) (enzyme)
chain: not shown
[1]
  stoichiometry N: 4
